Reference: publication PMC3188359 (Biochemistry, 2000)
Like-named read-outs stand apart in the source and are kept apart here. Blank lines part the entries; values can stand above or below the molecule they belong to.

Tests used:
[1] = target: Bacillus stearothermophilus DnaB (replicative helicase) (Bacillus stearothermophilus NCA 1503) (UniProt Q9X4C9); assay: SEC
[2] = target: the molecule itself; assay: SEC
[3] = target: the molecule itself; assay: SEC; remark: listed apart in the source
[4] = target: T1, Bacillus stearothermophilus DnaB (replicative helicase) (Bacillus stearothermophilus NCA 1503, UniProt Q9X4C9 1-454); assay: SEC + AUC
T1 sequence (looked up): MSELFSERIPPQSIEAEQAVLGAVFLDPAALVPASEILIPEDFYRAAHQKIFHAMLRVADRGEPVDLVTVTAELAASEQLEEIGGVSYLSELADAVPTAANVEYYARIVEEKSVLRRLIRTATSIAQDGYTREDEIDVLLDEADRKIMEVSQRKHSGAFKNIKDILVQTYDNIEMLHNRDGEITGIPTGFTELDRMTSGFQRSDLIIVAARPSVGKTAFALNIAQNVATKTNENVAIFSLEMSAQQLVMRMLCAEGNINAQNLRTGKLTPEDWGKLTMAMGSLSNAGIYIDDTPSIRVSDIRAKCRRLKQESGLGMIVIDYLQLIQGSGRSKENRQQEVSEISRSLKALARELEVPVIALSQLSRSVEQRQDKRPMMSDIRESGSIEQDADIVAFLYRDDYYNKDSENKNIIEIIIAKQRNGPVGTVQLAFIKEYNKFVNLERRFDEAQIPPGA

[5] = target: the molecule itself; assay: SEC; remark: listed apart in the source

stoichiometry N (P16 molecules per DnaB hexamer) [1]: 3
Molecule: P16, C-terminal 16 kDa fragment of B. stearothermophilus DnaG (from UniProt Q9X4D0 451-597) (domain or fragment)

B1: P33, C-terminal 33 kDa fragment of B. stearothermophilus DnaB (domain or fragment, Bacillus stearothermophilus NCA 1503, UniProt Q9X4C9 155-454, looked up)
chain: HSGAFKNIKDILVQTYDNIEMLHNRDGEITGIPTGFTELDRMTSGFQRSDLIIVAARPSVGKTAFALNIAQNVATKTNENVAIFSLEMSAQQLVMRMLCAEGNINAQNLRTGKLTPEDWGKLTMAMGSLSNAGIYIDDTPSIRVSDIRAKCRRLKQESGLGMIVIDYLQLIQGSGRSKENRQQEVSEISRSLKALARELEVPVIALSQLSRSVEQRQDKRPMMSDIRESGSIEQDADIVAFLYRDDYYNKDSENKNIIEIIIAKQRNGPVGTVQLAFIKEYNKFVNLERRFDEAQIPPGA
stoichiometry N [2]: 6
stoichiometry N [3]: 2

stoichiometry N [4]: 3 DnaG molecules per DnaB hexamer
B2: Bacillus stearothermophilus DnaG (primase) (enzyme, Bacillus stearothermophilus NCA 1503, UniProt Q9X4D0 1-597, looked up)
chain: MGHRIPEETIEAIRRGVDIVDVIGEYVQLKRQGRNYFGLCPFHGEKTPSFSVSPEKQIFHCFGCGAGGNAFTFLMDIEGIPFVEAAKRLAAKAGVDLSVYELDVRGRDDGQTDEAKAMTEAHALLKRFYHHLLVHTKEGQAALDYLQARGWTKETIDRFEIGYAPDAPDAAAKLLESHSFSLPVMEKAGLLTKKEDGRYVGRFRNRIMFPIHDHRGETVGFSGRLLGEGHPKYVNSPETPVFRKGAILYHFHAARVPIRKRQEALLVEGFADVISAAQAGIDYAIATMGTSLTEEQARILRPCDTITICYDGDRAGIEAAWAAAEQLSALGCRVKVASLPNGLDPDEYIRVYGGERFAGEAGCRRPLVAFKMAYLRRGKNLQHEGERLRYIDEALREIGKLSSPVEQDYYLRQLAEEFSLSLSALHEQLSRSQRERTKPREAPDGETARPMLAKKLLPAFQNAERLLLAHMMRSRDVALVVQERIGGRFNIEEHRALAAYIYAFYEEGHEADPGALISRIPGELQPLASDVSLLLIADDVSEQELEDYIRHVLNRPKWLMLKVKEQEKTEAERRKDFLTAARIAKEMIEMKKMLSSS

B3: P17, N-terminal 17 kDa fragment of B. stearothermophilus DnaB (domain or fragment, Bacillus stearothermophilus NCA 1503, UniProt Q9X4C9 1-154, looked up)
chain: MSELFSERIPPQSIEAEQAVLGAVFLDPAALVPASEILIPEDFYRAAHQKIFHAMLRVADRGEPVDLVTVTAELAASEQLEEIGGVSYLSELADAVPTAANVEYYARIVEEKSVLRRLIRTATSIAQDGYTREDEIDVLLDEADRKIMEVSQRK
stoichiometry N [5]: 2
